In this experiment the target is mitochondrial antiviral signaling protein (MAVS), full length, Flag-tagged (human (cDNA from HEK293T)) (UniProt Q7Z434).
Sequence of UniProt Q7Z434 (Q7Z434 whole entry): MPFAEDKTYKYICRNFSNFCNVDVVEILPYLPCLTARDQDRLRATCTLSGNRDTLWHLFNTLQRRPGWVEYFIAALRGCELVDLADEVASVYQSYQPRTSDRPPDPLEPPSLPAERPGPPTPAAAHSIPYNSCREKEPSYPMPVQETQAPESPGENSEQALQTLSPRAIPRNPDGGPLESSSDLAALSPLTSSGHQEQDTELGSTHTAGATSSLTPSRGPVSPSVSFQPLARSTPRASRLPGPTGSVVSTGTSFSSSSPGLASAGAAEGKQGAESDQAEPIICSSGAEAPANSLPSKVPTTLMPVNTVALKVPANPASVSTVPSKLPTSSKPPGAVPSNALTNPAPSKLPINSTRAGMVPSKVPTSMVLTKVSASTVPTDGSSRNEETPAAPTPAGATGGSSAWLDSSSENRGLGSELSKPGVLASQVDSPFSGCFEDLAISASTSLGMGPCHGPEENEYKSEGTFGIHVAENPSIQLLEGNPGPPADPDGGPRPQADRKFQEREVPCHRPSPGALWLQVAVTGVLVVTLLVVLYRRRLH

For the substance “EV-D68 structural protein VP3, HA-tagged (from UniProt Q68T42 318-552) (natural protein)”, the inhibition of MAVS-activated NF-κB promoter activity, dual-luciferase reporter in HEK293T, 600 ng VP3-HA plasmid was 70%.

The record behind these values is article PMC11998529.
